Laboratory results: article PMC6884004
Values belong to the molecule of their own block, whether it stands above or below them.

How the values were obtained:
[1] = target: Full length human MCAK (mitotic centromere-associated kinesin) (human) (UniProt Q99661); test: pull-down; full length human MCAK coupled (1 µg/µl beads) to cyanogen bromide-activated Sepharose beads via lysines or the N-terminal amine; beads pre-incubated with 5 mM AMPPNP or ADP for 30 min at 20°C; 15 μM porcine brain tubulin, 30 min, 20°C; nucleotide kept in the washing buffer; SDS-PAGE band intensity compared with uncoated beads
[2] = target: synthetic MTED peptide (MT elimination domain of Drosophila Efa6) (Drosophila melanogaster); test: pull-down; MTED or scrambled peptide coupled via the N-terminal amine to cyanogen bromide-activated Sepharose beads (5 ng peptide/μl beads); 15 μM porcine brain tubulin (un-polymerised GDP-tubulin); BRB80 with 0.2% Tween 20, 30 min, 20°C; five washes; SDS-PAGE band intensity compared with uncoated beads
[3] = target: porcine brain tubulin (un-polymerised GDP-tubulin) (porcine) (UniProt P02550)
[4] = target: GMPCPP-stabilised, rhodamine-labeled microtubules grown from porcine brain tubulin (porcine) (UniProt P02550); test: TIRF microscopy of GFP-tagged protein on surface-adhered microtubules; GMPCPP-stabilised rhodamine-labeled MTs adhered to flow chambers; 20 nM Efa6-ΔCterm::GFP in BRB20 pH 6.9, 75 mM KCl, 0.05% Tween20, 0.1 mg/ml BSA, or 20 nM MCAK::GFP in the same buffer plus 1 mM ATP and 1 mM taxol; mean GFP intensity on individual MTs

- fold tubulin pulled down against uncoated beads (with AMPPNP or ADP) [1]: 1.5 fold
- fold tubulin pulled down against beads coated with scrambled peptide [2]: 5 fold
- fold tubulin pulled down against uncoated beads [2]: 3 fold
Molecule: porcine brain tubulin (un-polymerised GDP-tubulin) (from UniProt P02550 1-451; P02554 1-445) (complex)

- fold decrease in amount of MT polymer in the MT growth assay (30 μM tubulin with 30 μM MTED peptide, against no peptide) [3]: 10 fold
B1: synthetic MTED peptide (MT elimination domain of Drosophila Efa6) (peptide)
peptide: APRFEAYMMTGDLILNLSRT

- fold of molecules on MTs against Efa6-ΔCterm::GFP at the same concentration [4]: > 2 fold
B2: MCAK::GFP (His6-MCAK::EGFP-StrepII) (enzyme)
chain: MAMDSSLQARLFPGLAIKIQRSNGLIHSANVRTVNLEKSCVSVEWAEGGATKGKEIDFDDVAAINPELLQLLPLHPKDNLPLQENVTIQKQKRRSVNSKIPAPKESLRSRSTRMSTVSELRITAQENDMEVELPAAANSRKQFSVPPAPTRPSCPAVAEIPLRMVSEEMEEQVHSIRGSSSANPVNSVRRKSCLVKEVEKMKNKREEKKAQNSEMRMKRAQEYDSSFPNWEFARMIKEFRATLECHPLTMTDPIEEHRICVCVRKRPLNKQELAKKEIDVISIPSKCLLLVHEPKLKVDLTKYLENQAFCFDFAFDETASNEVVYRFTARPLVQTIFEGGKATCFAYGQTGSGKTHTMGGDLSGKAQNASKGIYAMASRDVFLLKNQPCYRKLGLEVYVTFFEIYNGKLFDLLNKKAKLRVLEDGKQQVQVVGLQEHLVNSADDVIKMIDMGSACRTSGQTFANSNSSRSHACFQIILRAKGRMHGKFSLVDLAGNERGADTSSADRQTRMEGAEINKSLLALKECIRALGQNKAHTPFRESKLTQVLRDSFIGENSRTCMIATISPGISSCEYTLNTLRYADRVKELSPHSGPSGEQLIQMETEEMEACSNGALIPGNLSKEEEELSSQMSSFNEAMTQIRELEEKAMEELKEIIQQGPDWLELSEMTEQPDYDLETFVNKAESALAQQAKHFSALRDVIKALRLAMQLEEQASRQISSKKRPQ
